Experimental data published in patent US20220281990A1 (MERRIMACK PHARMACEUTICALS, published 2022).
Where a chain is given by its changes, count along the chain named.

Columns and labels:
[1] = target: T1, Human TNFR2 expressed on cells (CHO-hTNFR2 cells) (human, UniProt P20333 23-461); assay: flow cytometry, titration of soluble scFv (up to 300 nM) on CHO-hTNFR2 cells; one site binding non-linear fit
T1 construct: also called CHO cells overexpressing human TNFR2; human TNFR2 reporter cells (HEK293)
T1 sequence: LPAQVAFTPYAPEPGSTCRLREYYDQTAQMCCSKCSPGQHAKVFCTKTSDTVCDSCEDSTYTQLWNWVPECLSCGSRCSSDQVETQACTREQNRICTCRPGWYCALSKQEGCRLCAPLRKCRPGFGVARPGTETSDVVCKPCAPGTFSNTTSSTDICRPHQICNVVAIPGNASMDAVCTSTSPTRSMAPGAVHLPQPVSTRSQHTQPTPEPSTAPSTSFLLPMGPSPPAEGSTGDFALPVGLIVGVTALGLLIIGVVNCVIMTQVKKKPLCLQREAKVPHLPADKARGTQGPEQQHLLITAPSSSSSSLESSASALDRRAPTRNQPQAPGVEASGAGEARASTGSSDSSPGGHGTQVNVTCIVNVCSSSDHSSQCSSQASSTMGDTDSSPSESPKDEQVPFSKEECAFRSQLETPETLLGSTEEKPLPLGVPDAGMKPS

[2] = target: T1, Human TNFR2 expressed on cells …; assay: flow cytometry; soluble scFv inhibiting TNF (1 nM) binding to CHO-hTNFR2 cells (FIG. 3)
[3] = target: T1, Human TNFR2 expressed on cells …; assay: flow cytometry; soluble scFv inhibiting TNF (1 nM) binding to CHO-hTNFR2 cells (FIGS. 5A-5B)
[4] = target: T2, recombinant human TNFR2-hFc protein (human, UniProt P20333 23-257); assay: flow cytometry; hTNFR2-Fc binding to scFv displayed on yeast; one site binding fit (FIG. 4)
T2 construct: also called hTNFR2-Fc; human TNFR2-Fc; not shown: human Fc
T2 sequence: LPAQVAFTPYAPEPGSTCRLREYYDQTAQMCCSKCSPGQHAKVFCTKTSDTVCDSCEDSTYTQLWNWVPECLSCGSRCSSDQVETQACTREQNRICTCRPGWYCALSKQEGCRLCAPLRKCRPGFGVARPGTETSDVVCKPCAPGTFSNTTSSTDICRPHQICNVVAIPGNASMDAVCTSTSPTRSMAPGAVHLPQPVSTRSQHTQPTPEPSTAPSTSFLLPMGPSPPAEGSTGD

[5] = target: T2, recombinant human TNFR2-hFc protein; assay: flow cytometry; hTNFR2-Fc binding to scFv displayed on yeast; one site binding fit (FIG. 6A)
[6] = target: T2, recombinant human TNFR2-hFc protein; assay: flow cytometry; TNFR2-Fc binding to scFv displayed on yeast (FIGS. 6A-6C)
[7] = target: T2, recombinant human TNFR2-hFc protein; assay: flow cytometry; hTNFR2-Fc binding to scFv displayed on yeast; one site binding fit (FIG. 6B)
[8] = target: T1, Human TNFR2 expressed on cells …; assay: flow cytometry; soluble scFv inhibiting TNF (1 nM) binding to CHO-hTNFR2 cells (FIG. 7)
[9] = target: T2, recombinant human TNFR2-hFc protein; assay: flow cytometry; hTNFR2-Fc binding to scFv displayed on yeast; one site binding fit (FIG. 6C)
[10] = target: T1, Human TNFR2 expressed on cells …; assay: flow cytometry; IgG inhibiting TNF (1 nM) binding to CHO-hTNFR2 cells (FIG. 13A); FIG. 13A
[11] = target: T3, recombinant human TNFR2-His (human, UniProt P20333 23-257); assay: biolayer interferometry (BLI); IgG1 and TNFR2-His protein (FIG. 11)
T3 construct: also called hTNFR2-His; TNFR2-His protein; not shown: His tag
T3 sequence: T2 sequence

B1: UC5 (8-2A10) scFv (scFv)
scFv: QVQLLESGGGLVQPGGSLRLSCAASGFTFNTYAMTWVRQAPGKGLEWVSAISDSGGDTFYADSVKGRFTISRDNSKNTLYLQMNSLRAEDTAVYYCARDGTYAARFDYWGQGTLVTVSSASSGGSTSGSGKPGSGEGSSGSARDIQMTQSPSSLSASVGDRVTITCQASQDISNYLNWYQQKPGKAPKLLIYDASTLETGVPSRFSGSGSGTDFTFTISSLQPEDIATYYCQQSDSFPITFGQGTKVEIKR
notes: Soluble scFv
B1 showed a Kd [1] of 14.5 nM and an IC50 [2] of 746 nM.

B2: UC6 (9-1A6) scFv (scFv)
scFv: QVQLVQSGAEVKKPGSSVKVSCKASGDSFNNFGISWVRQAPGQGLEWMGGIVPVLGIATYAQKFQGRVTITADESTSTAYMELSSLRSEDTAVYYCARGSAWYDGSFQYWGQGTLVTVSSASSGGSTSGSGKPGSGEGSSGSAREIVLTQSPGTLSLSPGERATLSCRASQSVSSTFLAWYQQKPGQAPRLLIYDASTRATGIPDRFSGSDSGTDFTLTISRLEPEDFAVYYCQQYDSWPFTFGQGTKVEIKR
notes: Soluble scFv
For B2, the Kd [1] was 42 nM and the IC50 [2] was 69.7 nM.

B3: UC7 (9-1B5) scFv (scFv)
scFv: QVQLVQSGAEVKKPGSSVKVSCKASGDTFSSYGVSWVRQAPGQGLEWMGRIVPVFGIANYAQKFQGRVTITADESTSTAYMELSSLRSEDTAVYYCARQSPYVTYSSYYFDYWGQGTLVTVSSASSGGSTSGSGKPGSGEGSSGSAREIVLTQSPGTLSLSPGERATLSCRASQSVSNNFLAWYQQKPGQAPRLLIYDASTRATGIPDRFSGSGSGTDFTLTISRLEPEDFAVYYCQQYGSWPITFGQGTKVEIKR
notes: Soluble scFv
B3 was tested, and the Kd [1] was 48.9 nM and the IC50 [2] was 25.6 nM.

B4: UC 8 (9-2A4) scFv (scFv)
scFv: QVQLVQSGAEVKKPGSSVKVSCKASGDTFSNYGFSWVRQAPGQGLEWMGGIVPVFGIATYAQKFQGRVTITADESTSTAYMELSSLRSEDTAVYYCARDYSYYPDDPRYFEYWGQGTLVTVSSASSGGSTSGSGKPGSGEGSSGSAREIVLTQSPGTLSLSPGERATLSCRASQSVSSTFLAWYQQKPGQAPRLLIYAASSRATGIPDRFSGSGSGTDFTLTISRLEPEDFAVYYCQQYGSWPLTFGQGTKVEIKR
notes: Soluble scFv
Work on B4 yielded a Kd [1] of 13.4 nM and an IC50 [2] of 21.5 nM.

B5: UC1 (S4-2 1B5) scFv (scFv)
scFv: QVQLLESGGGLVQPGGSLRLSCAASGFSFTSYAMTWVRQAPGKGLEWVSGISGGGAATFYADSVKGRFTISRDNSKNTLYLQMNSLRAEDTAVYYCARQSQYVGGFDYWGQGTLVTVSSASSGGSTSGSGKPGSGEGSSGSARQSVLTQPPSVSGAPGQRVTISCTGSSSNIGAGYGVHWYQQLPGTAPKLLIYGNTNRPSGVPDRFSGFKSGTSASLAITGLQAEDEADYYCQSYDSSLSGWVFGGGTKLTVLG
Binder B5 has an IC50 [3] of 4.44 nM, a Kd [4] of 18.1 nM and a Kd [1] of 8.17 nM.

B6: UC1.2 (S4-2 1B5-1A5) scFv (scFv)
scFv: B5 scFv with G133D, I172F, Y194H
B6 was tested, and the Kd [5] was 0.57 nM and the “fold higher affinity (vs parental scFv)” value [6] was 10 fold.

B7: UC1.3 (S4-2 1B5-1B3) scFv (scFv)
scFv: B5 scFv with G54D, G133D, I172F, Y194H
With B7 the Kd [5] was 0.64 nM and the “fold higher affinity (vs parental scFv)” value [6] was 10 fold.

B8: UC2 (S4-2 1D10) scFv (scFv)
scFv: QVQLLESGGGLVQPGGSLRLSCAASGFTFSTYAMSWVRQAPGKGLEWVSIISDGGDATFYADSVKGRFTISRDNSKNTLYLQMNSLRAEDTAVYYCARDGTSAAAFDSWGQGTLVTVSSASSGGSTSGSGKPGSGEGSSGSARDIQMTQSPSSLSASVGDRVTITCQASQDITNFLNWYQQKPGKAPKLLIYDASTLQTGVPSRFSGSGSGTDFTFTISSLQPEDIATYYCQQSDSYPITFGQGTKVEIKR
Binder B8 has an IC50 [3] of 39.6 nM, a Kd [4] of 42.8 nM and a Kd [1] of 14.4 nM.

B9: UC2.3.3 (S4-2 1D10-1G9-1F10) scFv (scFv)
scFv: B8 scFv with V37I, F59V, S75N, K76R
notes: also called UC2.3.3 (monomer)
With B9 the Kd [7] was 1.35 nM, the IC50 [8] was 3.94 nM and the “fold higher affinity (vs parental scFv)” value [6] was 10 fold.

B10: UC2.3.3 scFv (dimer) (scFv)
scFv: B8 scFv with V37I, F59V, S75N, K76R
notes: also called UC2.3.3 (dimer)
B10 showed an IC50 [8] of 1.72 nM.

B11: UC2.3.9 (S4-2 1D10-1G9-1F12) scFv (scFv)
scFv: B8 scFv with V37I, F59V, S75N, K76R, Q167H
For B11, the Kd [7] was 1.79 nM and the “fold higher affinity (vs parental scFv)” value [6] was 10 fold.

B12: UC2.3.10 (S4-2 1D10-1G9-1G2) scFv (scFv)
scFv: B8 scFv with C22Y, V37I, F59V, G100R
For B12, the Kd [7] was 0.63 nM and the “fold higher affinity (vs parental scFv)” value [6] was 10 fold.

B13: UC2.3.11 (S4-2 1D10-1G9-1G3) scFv (scFv)
scFv: B8 scFv with A24V, V37I, F59V, C96W, S121N
With B13 the Kd [7] was 1.52 nM and the “fold higher affinity (vs parental scFv)” value [6] was 10 fold.

B14: UC2.3.12 (S4-2 1D10-1G9-1H1) scFv (scFv)
scFv: B8 scFv with G16D, V37I, F59V, S75N, K76R, D213N
For B14, the Kd [7] was 1.98 nM and the “fold higher affinity (vs parental scFv)” value [6] was 10 fold.

B15: UC2.3.13 (S4-2 1D10-1G9-1G11) scFv (scFv)
scFv: B8 scFv with G8V, A24V, V37I, A57V, F59V, G100R, T116S, V117D, A142S, T215N
For B15, the Kd [9] was 0.87 nM and the “fold higher affinity (vs parental scFv)” value [6] was 10 fold.

B16: UC2.3.14 (S4-2 1D10-1G9-1H11) scFv (scFv)
scFv: B8 scFv with C22Y, V37I, G42R, F59V, G100R
With B16 the Kd [9] was 0.65 nM and the “fold higher affinity (vs parental scFv)” value [6] was 10 fold.

B17: UC2.3.15 (S4-2 1D10-1G9-1H12) scFv (scFv)
scFv: B8 scFv with A24V, V37I, F59V, C96W, S121N
For B17, the Kd [9] was 0.78 nM and the “fold higher affinity (vs parental scFv)” value [6] was 10 fold.

B18: UC3 (S4-2 1E5) scFv (scFv)
scFv: QVQLLESGGGLVQPGGSLRLSCAASGFSFSSYAMSWVRQAPGKGLEWVSGISAGGGETFYADSVKGRFTISRDNSKNTLYLQMNSLRAEDTAVYYCARVHPISYGFDIWGQGTLVTVSSASSGGSTSGSGKPGSGEGSSGSARDIQMTQSPSSLSASVGDRVTITCQASQDIKKYLNWYQQKPGKAPKLLIYDASTLQTGVPSRFSGSGSGTDFTFTISSLQPEDIATYYCQQSDNTPVTFGQGTKVEIKR
notes: Soluble scFv
Binder B18 has a Kd [1] of 19.3 nM and an IC50 [2] of 110 nM.

B19: UC2.3.7-IgG1 (antibody, V domains shown)
VH: QVQLLESGGGLVQPGGSLRLSCAASGFTFSTYAMSWIRQAPGKGLEWVSIISDGGDATVYADSVKGRFTISRDNSKNTLYLQMNSLRAEDTAVYYCARDGTSAAAFDSWGQGTLVTVSS
VL: DIQMTQSPSSLSASVGDRVTITCQASQDITNFLNWYQQKPGKAPKLLIYDASRRRAGVPSRFSGSGSGTDFTFTISSLQPEDIATYYCQQSDSYPITFGQGTKVEIKR
notes: Full-length human IgG1; also called anti-human TNFR2 IgG UC2.3.7
Binder B19 has an IC50 [10] of 8.69 nM and a Kd [11] of 17.1 nM.
